According to paper PMC4427307:

Molecular target: human insulin (human)
Test: BLI; Octet Red, 96-well microplates, 25°C; biotinylated human insulin (12.5-50 μg/ml) immobilised on Streptavidin Biosensors; rSjLD1 (3.5-56 μg/ml) or rSjLD2 (1.78-56 μg/ml) in solution; kinetic buffer (1mM phosphate, 15mM NaCl, 0.1mg/ml BSA, 0.002% Tween-20); association 1000 s, dissociation …; double reference subtraction (BSA negative control and sensor)

recombinant L1 subdomain of Schistosoma japonicum insulin receptor 1 (SjLD1), expressed in Drosophila S2 cells (domain or fragment)
Kd: 64.4 nM

recombinant L1 subdomain of Schistosoma japonicum insulin receptor 2 (SjLD2), expressed in Drosophila S2 cells (domain or fragment)
Kd: 8.78 nM
